Laboratory results from patent US20250313631A1 (HUMMINGBIRD BIOSCIENCE PTE, published 2025).
One block for each binder: values may come before it.

Key:
[1] = target: T1, recombinant human VISTA (His-tagged) (human, UniProt Q9H7M9 33-194); test: antigen-binding ELISA; HMBD-002 10 mg/mL in F8, day 0
T1 construct: bought soluble protein (Sino Biological); also called hVISTA; human VISTA polypeptide

[2] = target: T1, recombinant human VISTA (His-tagged); test: antigen-binding ELISA; HMBD-002 10 mg/mL in F9, day 0
[3] = target: T1, recombinant human VISTA (His-tagged); test: antigen-binding ELISA; HMBD-002 in F1, day 20 at 40°C
[4] = target: T1, recombinant human VISTA (His-tagged); test: antigen-binding ELISA; HMBD-002 in F3, day 10 at 40°C
[5] = target: T1, recombinant human VISTA (His-tagged); test: antigen-binding ELISA; HMBD-002 in F8, day 20 at 40°C
[6] = target: T1, recombinant human VISTA (His-tagged); test: antigen-binding ELISA; HMBD-002 in F10, day 10 at 40°C
[7] = target: T2, cynomolgus macaque VISTA expressed on cells (cynomolgus macaque, UniProt A0A7N9IB00 33-311); test: flow cytometry, endogenous VISTA on CD11b+ myeloid cells of NHP PBMCs
T2 construct: whole, on cells; also called NHP VISTA on HEK293T cells; VISTA on NHP CD11b+ myeloid cells

[8] = target: T1, recombinant human VISTA (His-tagged); test: antigen-binding ELISA; reference standard run with the day 20 samples
[9] = target: T1, recombinant human VISTA (His-tagged); test: ELISA on coated human VISTA, antibody diluted in buffer of pH 7
[10] = target: T1, recombinant human VISTA (His-tagged); test: SPR (Biacore), VISTA-HIS captured, antibody as analyte, 1:1 model; SPR (Biacore), human VISTA
human FcγRIII (CD16a) = target: T3, human FcγRIII (CD16a) (human, UniProt P08637 17-208); test: ELISA, plate coated with human CD16a (FcγRIII), detection with HRP anti-human Fc antibody
T3 construct: also called human CD16a

[11] = target: T1, recombinant human VISTA (His-tagged); test: ELISA, plate coated with human VISTA
human B7H4 = target: T4, human B7H4 (human, UniProt Q7Z7D3 25-258, limits assumed); test: ELISA, plate coated with the antigen
T4 construct: also called VTCN1
T4 sequence (looked up): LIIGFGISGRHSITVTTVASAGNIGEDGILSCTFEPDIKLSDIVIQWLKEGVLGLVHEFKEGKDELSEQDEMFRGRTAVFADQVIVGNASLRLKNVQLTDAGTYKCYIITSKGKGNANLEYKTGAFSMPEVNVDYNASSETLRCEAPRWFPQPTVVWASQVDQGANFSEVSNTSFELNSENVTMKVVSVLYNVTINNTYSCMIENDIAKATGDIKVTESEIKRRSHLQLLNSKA

[12] = target: T1, recombinant human VISTA (His-tagged); test: ELISA, target protein coated, % Binding against log M of antibody
[13] = target: T5, recombinant cynomolgus macaque VISTA (His-tagged) (cynomolgus macaque, UniProt A0A7N9IB00 33-194); test: as above
T5 construct: also called cyno VISTA; cynomolgus monkey VISTA

[14] = target: T6, recombinant mouse VISTA (His-tagged) (mouse, UniProt Q9D659 33-191); test: as above
T6 construct: also called murine VISTA; mVISTA
T6 sequence (looked up): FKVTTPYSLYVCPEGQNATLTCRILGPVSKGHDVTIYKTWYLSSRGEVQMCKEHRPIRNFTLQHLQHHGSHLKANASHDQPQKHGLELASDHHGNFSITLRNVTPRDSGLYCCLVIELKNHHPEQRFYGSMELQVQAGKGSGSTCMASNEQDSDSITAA

human PD-L1 = target: T7, human PD-L1 (human, UniProt Q9NZQ7 19-239); test: as above
T7 construct: captured through a His tag in the BLI experiments; also called hPD-L1; B7H1/PDL-1

human HER3 = human HER3 (human, UniProt P21860 20-643); test: as above
[15] = target: T6, recombinant mouse VISTA (His-tagged); test: BLI (Octet QK384): His-tagged murine VISTA on anti-Penta-HIS tips, V4 666.5 to 41.7 nM as analyte, global fit
[16] = target: T1, recombinant human VISTA (His-tagged); test: BLI (Octet QK384): His-tagged human VISTA on anti-Penta-HIS tips, V4 as analyte; value of the line above the sensorgram, which differs from the table below it

T7 sequence (Q9NZQ7 19-239 limits assumed): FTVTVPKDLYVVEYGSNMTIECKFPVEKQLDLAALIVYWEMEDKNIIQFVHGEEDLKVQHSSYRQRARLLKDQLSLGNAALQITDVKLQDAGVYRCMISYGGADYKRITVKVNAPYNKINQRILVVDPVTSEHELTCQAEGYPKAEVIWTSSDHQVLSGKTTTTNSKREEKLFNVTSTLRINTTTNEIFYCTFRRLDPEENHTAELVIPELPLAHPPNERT
T3 sequence (P08637 17-208 limits assumed): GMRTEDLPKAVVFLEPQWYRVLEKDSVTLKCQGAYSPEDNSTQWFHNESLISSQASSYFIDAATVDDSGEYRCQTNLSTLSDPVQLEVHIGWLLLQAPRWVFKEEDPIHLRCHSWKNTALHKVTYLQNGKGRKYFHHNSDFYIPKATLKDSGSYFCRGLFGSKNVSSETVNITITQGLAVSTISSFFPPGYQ

B1: V4-C26 hIgG4 (antibody)
heavy: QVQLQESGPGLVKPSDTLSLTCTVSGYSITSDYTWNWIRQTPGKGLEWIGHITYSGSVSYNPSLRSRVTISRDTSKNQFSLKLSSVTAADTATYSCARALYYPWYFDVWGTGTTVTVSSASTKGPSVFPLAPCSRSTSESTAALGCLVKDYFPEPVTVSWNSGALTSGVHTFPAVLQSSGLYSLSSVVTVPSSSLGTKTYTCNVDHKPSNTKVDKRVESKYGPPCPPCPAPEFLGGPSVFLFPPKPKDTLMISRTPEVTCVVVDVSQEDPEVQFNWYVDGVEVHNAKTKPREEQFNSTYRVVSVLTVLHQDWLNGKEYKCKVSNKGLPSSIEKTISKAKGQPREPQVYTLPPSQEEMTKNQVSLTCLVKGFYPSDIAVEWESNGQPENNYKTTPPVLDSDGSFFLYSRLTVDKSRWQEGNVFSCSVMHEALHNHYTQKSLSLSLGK
light: EIVLTQSPATLSLSPGERATLSCRASSSVGYIHWYQQKPGQAPRPIIYTTSNRATGIPARFSGSGSGTDNTLTISSLEPEDSAVYYCQQWSSYPPITFGGGTKLEVKRTVAAPSVFIFPPSDEQLKSGTASVVCLLNNFYPREAKVQWKVDNALQSGNSQESVTEQDSKDSTYSLSSTLTLSKADYEKHKVYACEVTHQGLSSPVTKSFNRGEC
notes: human IgG4 (S228P)/kappa format; also called HMBD-002; HMBD-002-V4C26
- EC50 [1]: 0.0395 nM
- EC50 [2]: 0.0315 nM
- EC50 [3]: 0.0172 nM
- EC50 [4]: 0.0348 nM
- EC50 [5]: 0.0248 nM
- EC50 [6]: 0.0281 nM
- EC50 [7]: 67.6 nM
- EC50 [8]: 0.0355 nM
- EC50 [9]: 0.0343 nM
- Kd [10]: 0.407 nM
- binding result (human FcγRIII (CD16a)): no binding (tested: about 2e-7 M)

B4: anti-VISTA clone 4M2-C12 IgG1 (antibody)
heavy: not shown
light: DIVITQTPAILSTSPGEKVTMTCRASSSVGYIHWYQQKPGSSPKPWIYATSNLASGVPARFSGSGSGTSNSLTITRVEAEDAATYYCQQWSSYPPITFGGGTKLEVKRTVAAPSVFIFPPSDEQLKSGTASVVCLLNNFYPREAKVQWKVDNALQSGNSQESVTEQDSKDSTYSLSSTLTLSKADYEKHKVYACEVTHQGLSSPVTKSFNRGEC
notes: mouse variable regions on human IgG1/kappa constant regions; also called V4; V4pr
- EC50 [12]: 0.256 nM
- EC50 [13]: 0.282 nM
- EC50 [14]: 5.93 nM
- binding result (human PD-L1): no binding (tested: about 10^-6.7 M (log M axis))
- binding result (human HER3): no binding (tested: about 10^-6.2 M (log M axis))
- koff [15]: 0.00445 s⁻¹
- kon [15]: 39500 M⁻¹ s⁻¹
- koff [16]: < 4.54e-07 s⁻¹

Other lines, results leading:

- EC50 (read off the curve) [11]: ~0.02 nM
B2: anti-VISTA clone V4-C24 IgG1 (antibody, V domains shown)
VH: QVQLQESGPGLVKPSDTLSLTCTVSGYSITSDYTWNWIRQTPGKGLEWIGHITYSGSVSYNPSLRSRVTISRDTSKNQFSLKLSSVTAADTATYSCARALYYPWYFDVWGTGTTVTVSS
VL: EIVLTQSPATLSLSPGERATLSCRASSSVGYIHWYQQKPGQAPRPLIYTTSYRATGIPARFSGSGSGTDNTLTISSLEPEDSAVYYCQQWSSYPPITFGGGTKLEVKR

- binding result (human B7H4): no binding (tested: log -7.5 M)
B3: anti-VISTA clone V4-C26 IgG1 (antibody)
heavy: not shown
light: EIVLTQSPATLSLSPGERATLSCRASSSVGYIHWYQQKPGQAPRPIIYTTSNRATGIPARFSGSGSGTDNTLTISSLEPEDSAVYYCQQWSSYPPITFGGGTKLEVKRTVAAPSVFIFPPSDEQLKSGTASVVCLLNNFYPREAKVQWKVDNALQSGNSQESVTEQDSKDSTYSLSSTLTLSKADYEKHKVYACEVTHQGLSSPVTKSFNRGEC
